This note sets out measurements from PMC5392723.

Numbering of substitutions follows the chain as printed.

What all share (test): EMSA
For orientation: A gel shift assay detects complexes by their altered migration in electrophoresis.

One data set concerns the target T1, Glo qRRM1,2 W58A (Drosophila, UniProt Q9VGH5 49-225, W58A).
T1 sequence: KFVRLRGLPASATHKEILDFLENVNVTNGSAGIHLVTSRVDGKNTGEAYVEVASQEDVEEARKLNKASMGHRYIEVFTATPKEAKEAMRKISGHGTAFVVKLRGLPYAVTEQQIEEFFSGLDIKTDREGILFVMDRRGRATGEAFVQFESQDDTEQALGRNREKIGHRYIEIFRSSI

The target of another data set is T2, Glo qRRM1 (Drosophila, UniProt Q9VGH5 49-129).
T2 sequence: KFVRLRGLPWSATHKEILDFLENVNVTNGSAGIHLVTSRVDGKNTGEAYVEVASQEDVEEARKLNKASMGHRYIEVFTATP

A further data set has as its target T3, Glo qRRM3 (Drosophila, UniProt Q9VGH5 476-565).
T3 sequence: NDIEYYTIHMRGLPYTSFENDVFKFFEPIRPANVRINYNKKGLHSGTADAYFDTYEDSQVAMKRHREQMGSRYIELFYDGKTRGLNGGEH

Another data set deals with T4, Glo qRRM2 (Drosophila, UniProt Q9VGH5 146-225).
T4 sequence: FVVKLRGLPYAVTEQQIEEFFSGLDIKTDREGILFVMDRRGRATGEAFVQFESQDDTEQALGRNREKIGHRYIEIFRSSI

For another data set, the target named is T5, Glo qRRM1,2 R52A,K149A (Drosophila, UniProt Q9VGH5 49-225, R52A;K149A).
T5 sequence: T1 sequence with R4A, A10W, K101A

One may read the Kd as the equilibrium constant for the complex coming apart. High values mean a looser complex, low ones a tighter complex. Regarding AGGGA (ssRNA) [G-tract RNA 5'-AGGGA], the binding result in the data set with Glo qRRM1,2 W58A and with Glo qRRM1,2 R52A,K149A was “binds” in each case. Also, the Kd stood at 180 nM in the data set with Glo qRRM1, 170 nM with Glo qRRM3 and 620 nM with Glo qRRM2.
